Like-named read-outs stand apart in the source and are kept apart here.
Legend:
[1] = biological target: T1, CEACAM1 (Sino Biological) (human, UniProt P13688 35-428, limits assumed); experiment: SPR single-cycle
T1 construct: may be the same as CEACAM1-HIS; also called hCEACAM1; biotinylated soluble CEACAM1
T1 sequence: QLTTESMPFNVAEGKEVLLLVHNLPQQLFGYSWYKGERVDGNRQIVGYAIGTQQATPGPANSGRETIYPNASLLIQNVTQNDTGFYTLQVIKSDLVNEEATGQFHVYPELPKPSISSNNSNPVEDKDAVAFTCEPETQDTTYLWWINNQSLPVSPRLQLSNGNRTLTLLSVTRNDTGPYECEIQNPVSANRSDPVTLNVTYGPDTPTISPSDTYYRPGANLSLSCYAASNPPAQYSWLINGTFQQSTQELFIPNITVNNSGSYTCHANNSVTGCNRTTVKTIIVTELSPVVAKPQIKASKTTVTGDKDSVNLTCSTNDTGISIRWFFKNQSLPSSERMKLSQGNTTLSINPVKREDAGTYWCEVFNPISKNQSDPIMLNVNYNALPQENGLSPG
Summary of the method: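 Humanized affinity-matured IgGs from crude supernatants captured on Protein A to ~100 RU, with CEACAM1 analyte injected at 25–100 nM (three-point, two-fold) in HBS-P+ without regeneration. 200 s association per injection, 300 s single dissociation; reference-channel and blank subtracted.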

[2] = biological target: T1, CEACAM1 (Sino Biological); experiment: SPR multi-cycle, IgG on Protein A
Experimental: Multi-cycle kinetics analysis was performed on the twelve lead antibodies using a Biacore T200 instrument running Biacore T200 Evaluation Software V3.0.1 (Uppsala, Sweden) to establish an accurate affinity for CEACAM1. The purified antibodies were diluted to a concentration of […] in HBS-P+. At the start of each cycle, each antibody was captured on the Protein A surface to give an RL of ˜100 RU. Following capture, the surface was allowed to stabilize. Kinetic data was obtained using a flow rate of […] to minimize any potential mass transfer effects. For the kinetics analysis, CEACAM1 was used. Multiple repeats of the blank ([…]) and a repeat of a single concentration of the analyte were programmed into the kinetic run in order to check the stability of both the surface and analyte over the kinetic cycles. For kinetic analysis, a two-fold dilution range was selected from 200 to 3.125 nM CEACAM1. The association phase of CEACAM1 was monitored for 275 seconds and the dissociation phase was measured for 250 seconds. Regeneration of the Protein A surface was conducted using two injections of 10 mM glycine-HCL pH 1.5 at the end of each cycle.
The signal from the reference channel Fc1 was subtracted from that of Fc2, Fc3 and Fc4 to correct for differences in non-specific binding to a reference surface, and a global Rmax parameter was used in the 1-to-1 binding model. The relative KD was calculated by dividing the KD of the RSB02 Parent by that of the humanized and affinity matured variants on the same chip.

[3] = biological target: T2, CEACAM5 (Sino Biological) (human, UniProt P06731 35-685); experiment: binding ELISA on plate-coated CEACAM (0.5 µg/mL); antibody at 1.67, 0.062 and 0.0069 µg/mL; signal as % of parent IgG on CEACAM1 at 1.67 µg/mL on the same plate
T2 construct: also called hCEACAM5
T2 sequence (looked up): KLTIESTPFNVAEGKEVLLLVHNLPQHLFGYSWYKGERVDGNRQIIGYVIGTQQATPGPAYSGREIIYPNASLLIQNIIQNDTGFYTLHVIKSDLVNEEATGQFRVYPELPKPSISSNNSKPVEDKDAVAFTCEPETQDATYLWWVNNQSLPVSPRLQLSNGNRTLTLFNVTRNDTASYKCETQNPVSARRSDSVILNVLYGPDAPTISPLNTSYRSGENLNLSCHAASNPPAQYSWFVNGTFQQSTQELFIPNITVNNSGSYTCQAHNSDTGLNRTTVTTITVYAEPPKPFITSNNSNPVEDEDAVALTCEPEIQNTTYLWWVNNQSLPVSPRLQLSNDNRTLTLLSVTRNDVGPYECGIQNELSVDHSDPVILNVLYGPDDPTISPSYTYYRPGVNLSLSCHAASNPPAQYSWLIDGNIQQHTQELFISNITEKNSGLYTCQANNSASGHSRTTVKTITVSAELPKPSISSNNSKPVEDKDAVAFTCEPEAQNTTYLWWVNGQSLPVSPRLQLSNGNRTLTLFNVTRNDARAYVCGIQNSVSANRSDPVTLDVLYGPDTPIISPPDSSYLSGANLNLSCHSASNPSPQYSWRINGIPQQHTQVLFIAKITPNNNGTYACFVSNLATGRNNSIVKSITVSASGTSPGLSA

[4] = biological target: T3, CEACAM3 (Sino Biological) (human, UniProt P40198 35-155, limits assumed); experiment: as above
T3 construct: also called hCEACAM3
T3 sequence (looked up): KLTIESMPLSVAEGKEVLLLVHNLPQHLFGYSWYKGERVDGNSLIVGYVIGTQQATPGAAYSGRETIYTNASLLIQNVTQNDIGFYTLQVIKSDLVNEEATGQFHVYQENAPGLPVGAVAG

[5] = biological target: T4, CEACAM6 (Sino Biological) (human, UniProt P40199 35-320); experiment: as above
T4 construct: also called hCEACAM6
T4 sequence (looked up): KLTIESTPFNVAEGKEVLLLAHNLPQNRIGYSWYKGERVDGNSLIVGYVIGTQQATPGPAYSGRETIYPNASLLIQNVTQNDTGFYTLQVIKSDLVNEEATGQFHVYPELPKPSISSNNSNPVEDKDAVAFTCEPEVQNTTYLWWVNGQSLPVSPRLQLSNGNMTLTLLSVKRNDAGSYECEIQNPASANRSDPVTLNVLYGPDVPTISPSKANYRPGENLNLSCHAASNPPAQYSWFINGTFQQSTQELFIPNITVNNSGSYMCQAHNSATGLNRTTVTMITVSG

[6] = biological target: T2, CEACAM5 (Sino Biological); experiment: as above; remark: listed apart in the source
[7] = biological target: T5, CEACAM1 on transfected HeLa cells (Homo sapiens (Human), UniProt P13688 35-526); experiment: flow cytometry, transfected HeLa
T5 construct: also called C1
T5 sequence: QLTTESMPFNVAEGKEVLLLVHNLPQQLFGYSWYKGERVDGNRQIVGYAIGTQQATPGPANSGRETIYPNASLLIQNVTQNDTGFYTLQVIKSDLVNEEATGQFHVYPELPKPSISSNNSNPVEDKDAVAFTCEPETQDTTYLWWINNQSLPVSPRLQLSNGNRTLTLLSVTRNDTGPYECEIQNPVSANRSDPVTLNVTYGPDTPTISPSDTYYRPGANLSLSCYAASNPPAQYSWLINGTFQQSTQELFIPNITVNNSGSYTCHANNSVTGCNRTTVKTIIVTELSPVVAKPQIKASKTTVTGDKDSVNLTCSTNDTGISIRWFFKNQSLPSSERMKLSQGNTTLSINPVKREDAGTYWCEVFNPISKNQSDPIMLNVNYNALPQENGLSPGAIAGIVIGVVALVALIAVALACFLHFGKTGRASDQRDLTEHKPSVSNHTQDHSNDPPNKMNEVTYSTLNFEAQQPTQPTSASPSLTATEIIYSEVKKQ
Experimental: (§1) Binding selectivity of the selected antibody variants was assessed by flow cytometry using HeLa cells transfected with vectors expressing CEACAM1, CEACAM5, and CEACAM6, respectively. The resulting cells were used for flow cytometry experiments and were cultured at 37° C., 5.0% CO₂ in Dulbecco's modified Eagle's medium supplemented with 10% fetal bovine serum, penicillin (100 U/ml) and dihydrostreptomycin ([…]). Cell lines were stained with the indicated antibodies followed by fluorochrome-conjugated monoclonal antibody specific for the indicated antibody isotypes such as human IgG4 or mouse IgG1 together with viable dye (DAPI). Data were acquired with a Cytoflex flow cytometer ([…]) and analyzed with FlowJo software (TreeStar, V7.6.5 for Windows).

[8] = biological target: T6, CEACAM5 on transfected HeLa cells (UniProt P06731 35-685); experiment: flow cytometry, transfected HeLa
T6 construct: whole, on cells; also called C5
T6 sequence (looked up): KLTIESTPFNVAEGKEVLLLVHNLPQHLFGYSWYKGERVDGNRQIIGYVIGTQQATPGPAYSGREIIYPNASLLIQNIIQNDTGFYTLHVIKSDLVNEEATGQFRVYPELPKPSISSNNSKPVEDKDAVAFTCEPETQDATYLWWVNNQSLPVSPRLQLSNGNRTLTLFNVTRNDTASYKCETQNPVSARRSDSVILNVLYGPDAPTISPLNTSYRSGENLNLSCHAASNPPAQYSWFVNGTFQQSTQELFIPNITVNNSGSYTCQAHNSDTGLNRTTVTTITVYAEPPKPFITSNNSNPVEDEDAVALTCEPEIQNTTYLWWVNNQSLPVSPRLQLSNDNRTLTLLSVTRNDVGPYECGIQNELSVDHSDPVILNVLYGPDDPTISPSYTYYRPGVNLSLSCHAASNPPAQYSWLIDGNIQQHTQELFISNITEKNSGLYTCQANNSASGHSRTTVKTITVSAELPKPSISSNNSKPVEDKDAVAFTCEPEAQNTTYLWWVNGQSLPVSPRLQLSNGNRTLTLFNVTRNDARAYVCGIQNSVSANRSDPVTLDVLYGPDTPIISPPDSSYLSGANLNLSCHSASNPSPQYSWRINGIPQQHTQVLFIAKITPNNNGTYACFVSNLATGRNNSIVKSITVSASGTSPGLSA
Experimental: as §1

B1: He9/L3 (antibody, IgG4, V domains shown)
VH: EVQLLESGGGLVQPGGSLRLSCAASGFSFSDYYLYWVRQAPGKGLEWVATISVGGGQTSYADSVKGRFTISRDNSKNTLYLQMNSLRAEDTAMYYCARAMYYGPAWFAYWGQGTLVTVSS
VL: DIVMTQSPDSLAVSLGERATINCKSSQSLLNSANQKNYLAWYQQKPGQPPKLLIYFASTRESGVPDRFSGSGSGTDFTLTISSLQAEDVAVYYCQSHFPFPFTFGGGTKVEIK
notes: IgG4 S241P, kappa; also called He9 / 3
**Q.** B1 was tested. Which Kd [1] did it give?
**A.** Its Kd is 27 nM.

**Q.** And the “fold better than Parent (KD)” value [1]?
**A.** The value was 5.85 fold.

**Q.** And the Kd [2]?
**A.** The Kd was 31.6 nM.

**Q.** What about the koff [2] of the same binder?
**A.** The koff was 0.00139 s⁻¹.

**Q.** What about the kon [2] of the same binder?
**A.** Its kon is 44000 M⁻¹ s⁻¹.

**Q.** And the “relative KD to Parent” value [2]?
**A.** Its value is 4.15 ratio.

**Q.** Does B1 bind [3]?
**A.** Result: binds

B2: He17/L16 (antibody, IgG4, V domains shown)
VH: EVQLLESGGGLVQPGGSLRLSCAASGFSFSDYYLYWVRQAPGKGLEWVATISVGGGQTSYADSVKGRFTISRDNSKNTLYLQMNSLRAEDTAMYYCTRARTYGPAWFAYWGQGTLVTVSS
VL: DIVMTQSPDSLAVSLGERATINCKSSQSLLNSANQKNYLAWYQQKPGQPPKLLIYFASTRESGVPDRFSGSGSGTDFTLTISSLQAEDVAVYYCQSHYPYPFTFGGGTKVEIK
notes: IgG4 S241P, kappa; also called 17 / 16
**Q.** What does the source list for B2?
**A.** Kd [1]: 67 nM; fold better than Parent (KD) [1]: 2.36 fold; Kd [2]: 25.8 nM; koff [2]: 0.00795 s⁻¹; kon [2]: 308000 M⁻¹ s⁻¹; relative KD to Parent [2]: 3.31 ratio; binding result [4]: no binding (tested: 1.67 µg/mL); binding result [5]: no binding (tested: 1.67 µg/mL)

B3: He9/L17 (antibody, IgG4, V domains shown)
VH: EVQLLESGGGLVQPGGSLRLSCAASGFSFSDYYLYWVRQAPGKGLEWVATISVGGGQTSYADSVKGRFTISRDNSKNTLYLQMNSLRAEDTAMYYCARAMYYGPAWFAYWGQGTLVTVSS
VL: DIVMTQSPDSLAVSLGERATINCKSSQSLLNSANQKNYLAWYQQKPGQPPKLLIYFASTRESGVPDRFSGSGSGTDFTLTISSLQAEDVAVYYCQSHYPYPYTFGGGTKVEIK
notes: IgG4 S241P, kappa; also called He9 / 17
**Q.** What does the source list for B3?
**A.** Kd [1]: 33 nM; fold better than Parent (KD) [1]: 4.88 fold; Kd [2]: 40.9 nM; koff [2]: 0.0015 s⁻¹; kon [2]: 36700 M⁻¹ s⁻¹; relative KD to Parent [2]: 4.55 ratio; binding result [3]: binds

B4: He4/L16 (antibody, IgG4, V domains shown)
VH: EVQLLESGGGLVQPGGSLRLSCAASGFSFSDYYLYWVRQAPGKGLEWVATISVGGGQTSYADSVKGRFTISRDNSKNTLYLQMNSLRAEDTAMYYCTRALYYGPAWFAYWGQGTLVTVSS
VL: DIVMTQSPDSLAVSLGERATINCKSSQSLLNSANQKNYLAWYQQKPGQPPKLLIYFASTRESGVPDRFSGSGSGTDFTLTISSLQAEDVAVYYCQSHYPYPFTFGGGTKVEIK
notes: IgG4 S241P, kappa; also called He4 / 16
**Q.** Which results are given for B4?
**A.** Kd [1]: 52 nM; fold better than Parent (KD) [1]: 3.04 fold; Kd [2]: 38.9 nM; koff [2]: 0.00146 s⁻¹; kon [2]: 37500 M⁻¹ s⁻¹; relative KD to Parent [2]: 3.16 ratio; binding result [4]: no binding (tested: 1.67 µg/mL)

B5: He9/L4#2 (antibody, IgG4, V domains shown)
VH: EVQLLESGGGLVQPGGSLRLSCAASGFSFSDYYLYWVRQAPGKGLEWVATISVGGGQTSYADSVKGRFTISRDNSKNTLYLQMNSLRAEDTAMYYCARAMYYGPAWFAYWGQGTLVTVSS
VL: DIVMTQSPDSLAVSLGERATINCKSSQSLLNSANQKNYLAWYQQKPGQPPKLLIYFASTRESGVPDRFSGSGSGTDFTLTISSLQAEDVAVYYCQSHYPYPYTFGGGTKVEIK
notes: IgG4 S241P, kappa
**Q.** Which results are given for B5?
**A.** Kd [1]: 57 nM; fold better than Parent (KD) [1]: 9.71 fold; Kd [2]: 33.7 nM; koff [2]: 0.0013 s⁻¹; kon [2]: 38600 M⁻¹ s⁻¹; relative KD to Parent [2]: 3.89 ratio; binding result [6]: binds

B6: VH1 N56Q/VK4 S27(f)A (antibody, human IgG4, V domains shown)
VH: EVQLLESGGGLVQPGGSLRLSCAASGFSFSDYYLYWVRQAPGKGLEWVATISVGGGQTSYPDSVKGRFTISRDNSKNTLYLQMNSLRAEDTAMYYCTRGLYYGPAWFAYWGQGTLVTVSS
VL: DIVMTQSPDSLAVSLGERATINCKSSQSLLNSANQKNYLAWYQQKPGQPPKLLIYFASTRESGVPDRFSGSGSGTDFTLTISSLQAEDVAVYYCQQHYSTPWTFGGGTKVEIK
notes: aglycosylated humanized variant; human IgG4
**Q.** How did the relative fluorescence intensity [7] turn out when B6 was run?
**A.** Its relative fluorescence intensity is 87.1.

**Q.** And the relative fluorescence intensity [8]?
**A.** Its relative fluorescence intensity is 0.0622.

From US20250388666A1 (BRIGHAM AND WOMEN S HOSPITAL, published 2025)
